Usually IC50 stands for the midpoint of a concentration-inhibition curve. Read a high IC50 as lower potency.

Assay in all cases: cell-based or functional assay
Test [1] addresses HIV-1 Env of pseudovirus MGRM-G-028 (HIV-1).
The target in test [2] is HIV-1 MGRM-AE-005 Env (pseudovirus) (HIV-1).
Test [3] deals with HIV-1 Env of isolate 93IN905 (Clade C) (HIV-1).
The target of test [4] is HIV-1 Env of isolate 92UG001 (clade D pseudovirus) (HIV-1).
The target of test [5] is HIV-1 Env of pseudovirus MGRM-F1-004 (clade F) (HIV-1).
The target of test [6] is HIV-1 Env of isolate MGRM-D-018 (clade D pseudovirus) (HIV-1).
In test [7] the target is HIV-1 Env of isolate 92RW009 (clade A pseudovirus) (HIV-1).
The target of test [8] is HIV-1 Env of pseudovirus MGRM-F1-018 (clade F) (HIV-1).
Test [9] deals with HIV-1 envelope glycoprotein (Env) of isolate MGRM-C-024 (HIV-1).
Test [10] deals with HIV-1 Env of isolate NL43, clade B (HIV-1).
For test [11], the target named is HIV-1 Env of isolate MGRM-Chronic-B-002, clade B (HIV-1).
In test [12] the target is HIV-1 Env of isolate 93TH305, clade B (HIV-1).
For test [13], the target named is HIV-1 envelope glycoprotein (Env) of isolate 94 KE 105, subtype AC (HIV-1).
Test [14] deals with HIV-1 envelope glycoprotein (Env) of isolate CAAN.A2, on pseudovirus (HIV-1).
In test [15] the target is HIV-1 envelope glycoprotein (Env) of isolate MG RM-A-007, subtype A (HIV-1).
Test [16] has as its target HIV-1 Env of isolate MGRM-AG-011 (pseudovirus) (HIV-1).
Test [17] has as its target HIV-1 envelope glycoprotein (Env) of isolate MG RM-A-008, subtype A (HIV-1).
In test [18] the target is HIV-1 MGRM-D-001 envelope protein (Env) on pseudovirus (HIV-1).
Test [19] deals with HIV-1 Env of isolate MGRM-AE-007 (pseudovirus) (HIV-1).
Test [20] deals with HIV-1 94UG103 Env (HIV-1).
The target in test [21] is HIV-1 Env of isolate MGRM-AG-005 (pseudovirus) (HIV-1).
In test [22] the target is HIV-1 envelope glycoprotein (Env) of isolate APV_13, on pseudovirus (HIV-1).
The target in test [23] is HIV-1 envelope glycoprotein (Env) of isolate 92WR021, subtype A (HIV-1).
Test [24] has as its target HIV-1 envelope glycoprotein (Env) of isolate APV_6, on pseudovirus (HIV-1).
In test [25] the target is HIV-1 envelope glycoprotein (Env) of isolate 92UG037, subtype A (HIV-1).
For test [26], the target named is HIV-1 Env of isolate MGRM-AE-001 (pseudovirus) (HIV-1).
Test [27] deals with HIV-1 Env of isolate MGRM-AE-003 (pseudovirus) (HIV-1).

Chain of 1443_C16 (PG16) (TCN-116) (antibody) (VH): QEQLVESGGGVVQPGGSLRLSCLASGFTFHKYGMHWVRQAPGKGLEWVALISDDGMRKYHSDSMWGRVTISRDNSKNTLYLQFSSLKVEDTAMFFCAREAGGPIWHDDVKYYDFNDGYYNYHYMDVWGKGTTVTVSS
Chain of 1443_C16 (PG16) (TCN-116) (antibody) (VL): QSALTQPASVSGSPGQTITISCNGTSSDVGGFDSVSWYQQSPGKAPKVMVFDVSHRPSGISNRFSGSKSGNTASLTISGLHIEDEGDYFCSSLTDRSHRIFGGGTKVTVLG

4E10 (antibody): the IC50 (µg/ml), pseudovirus neutralization in test [1] was 6.32 µg/mL; in test [2], 0.47 µg/mL; in test [7], more than 50 µg/mL; in test [9], 22.6 µg/mL; in test [10], 4.67 µg/mL; in [11] it was 2.19 µg/mL. Moreover, the IC50 (µg/ml), pseudovirus neutralization in test [12] was determined as 12.3 µg/mL. In [3], this substance registered an IC90 (neutralization of pseudovirus) of 12.8 µg/mL. The IC50, pseudovirus neutralization in test [4] stood at 13.6 µg/mL; in test [6] it was 3.9 µg/mL. Further, the IC50 in [5] came out at 2.74 µg/mL; in test [8] it was 3.6 µg/mL.

As to 4877_D15 (PGT-122) (antibody), the IC50, pseudovirus neutralization in [13] is 0.056 µg/mL; in test [14], 0.011 µg/mL; in [15] it was more than 50 µg/mL; in test [17], more than 50 µg/mL; in test [20], 1.46 µg/mL; in test [22], 0.778 µg/mL. Besides, the IC50, pseudovirus neutralization in [23] was 0.021 µg/mL; in [24] it was 0.019 µg/mL; in test [25] it was 0.068 µg/mL. In addition, the values for the IC50 (µg/mL), pseudovirus neutralization in [16], in test [19] and in test [21] were more than 50 µg/mL, more than 50 µg/mL and 33.9 µg/mL, respectively. For the same substance, the IC50 (ug/mL), pseudovirus neutralization in [18] came out at 0.867 µg/mL.

Consider 4858_P08 (PGT-123) (antibody), for which the IC50, pseudovirus neutralization was 0.024 µg/mL in test [13]; 0.015 µg/mL in test [14]; more than 50 µg/mL in test [15]; more than 50 µg/mL in test [17]; 0.846 µg/mL in test [20]; 0.138 µg/mL in test [22]. For the same substance, the IC50, pseudovirus neutralization in test [23] stood at 0.005 µg/mL; in test [24], 0.023 µg/mL; in test [25], 0.023 µg/mL. Besides, the IC50 (µg/mL), pseudovirus neutralization in [16] was more than 50 µg/mL; in test [19], more than 50 µg/mL; in test [21], 0.149 µg/mL. The substance further had an IC50 (ug/mL), pseudovirus neutralization in test [18] of 0.215 µg/mL.

For the substance 1496_C09 (PG9) (TCN-109) (antibody), the IC50 (µg/ml), pseudovirus neutralization in test [2] was determined as 0.16 µg/mL; in test [7], 0.03 µg/mL; in test [9], 0.22 µg/mL; in [10] it was 0.32 µg/mL; in test [11] it was 1.41 µg/mL; in test [12], 2.08 µg/mL. The same substance yielded an IC90 (neutralization of pseudovirus) in test [3] of 1.89 µg/mL. Moreover, the IC50, pseudovirus neutralization is 41.8 µg/mL in test [4] and 0.31 µg/mL in [20]. For the same substance, the IC50 (µg/mL), pseudovirus neutralization came to 0.007 µg/mL in [16], 0.18 µg/mL in [19], 20.6 µg/mL in test [26] and 0.044 µg/mL in test [27]. This substance also yielded an IC50 in [8] of 0.03 µg/mL.

Regarding b12 (antibody), the IC50 (µg/ml), pseudovirus neutralization in [1] is more than 50 µg/mL; in test [2], 0.63 µg/mL; in [7] it was more than 50 µg/mL; in test [9] it was more than 50 µg/mL; in test [10], 0.17 µg/mL; in test [11] it was 0.86 µg/mL. In addition, the IC50 (µg/ml), pseudovirus neutralization in test [12] amounted to 4.17 µg/mL. Moreover, the IC90 (neutralization of pseudovirus) in test [3] is more than 50 µg/mL. The figures for the IC50, pseudovirus neutralization in [4] and in test [6] were 1.01 µg/mL and 1.39 µg/mL, respectively. For the same substance, the IC50 in test [5] and in [8] was more than 50 µg/mL throughout.

For 5145_B14 (PGT-127) (antibody), the IC50, pseudovirus neutralization in test [13] is 0.023 µg/mL; in [14], 0.371 µg/mL; in test [15], more than 50 µg/mL; in test [17] it was more than 50 µg/mL; in [22], 0.026 µg/mL; in test [23] it was 0.011 µg/mL. Further, the IC50, pseudovirus neutralization in test [24] amounted to 0.04 µg/mL; in test [25], 0.014 µg/mL. Besides, the IC50 (µg/mL), pseudovirus neutralization in test [16], in [19] and in test [21] was more than 50 µg/mL each time.

1443_C16 (PG16) (TCN-116) (antibody): the IC50 (µg/ml), pseudovirus neutralization was 3.09 µg/mL in test [1]; 0.02 µg/mL in [2]; 0.11 µg/mL in test [7]; 0.04 µg/mL in [9]; 0.02 µg/mL in test [10]; 3.06 µg/mL in test [11]. This substance gave an IC50 (µg/ml), pseudovirus neutralization in [12] of 19.3 µg/mL. This substance also gave an IC90 (neutralization of pseudovirus) in test [3] of more than 50 µg/mL. In addition, the results for the IC50, pseudovirus neutralization in test [4] and in test [6] were more than 50 µg/mL and 0.004 µg/mL, respectively. In addition, the values for the IC50 in test [5] and in test [8] were 0.43 µg/mL and 0.01 µg/mL, respectively.

Consider PGV04 (antibody), for which the IC50 (µg/mL), pseudovirus neutralization turned out to be 0.071 µg/mL in [16]; 5.75 µg/mL in test [19]; 0.027 µg/mL in test [21]; 0.063 µg/mL in [26]; 6.4 µg/mL in [27].

For the substance 1495_C14 (PGC14) (antibody), the IC50 (µg/ml), pseudovirus neutralization in test [1] is more than 50 µg/mL; in [2] it was more than 50 µg/mL; in test [7], more than 50 µg/mL; in test [9] it was more than 50 µg/mL; in test [10], 40 µg/mL; in [11], more than 50 µg/mL. The substance also registered an IC50 (µg/ml), pseudovirus neutralization in test [12] of 6 µg/mL. For the same substance, the IC50, pseudovirus neutralization in test [4] and in [6] was more than 50 µg/mL throughout. For the same substance, the IC50 in test [5] and in test [8] was more than 50 µg/mL in each case.

As to 2G12 (antibody), the IC50 (µg/ml), pseudovirus neutralization is 28.2 µg/mL in test [1]; more than 50 µg/mL in [2]; 26.1 µg/mL in test [7]; more than 50 µg/mL in test [9]; 0.49 µg/mL in test [10]; more than 50 µg/mL in test [11]. This substance registered an IC50 (µg/ml), pseudovirus neutralization in test [12] of 0.55 µg/mL. In addition, the IC90 (neutralization of pseudovirus) in test [3] is more than 50 µg/mL. Also, the IC50, pseudovirus neutralization in [4] was more than 50 µg/mL; in test [6], 0.12 µg/mL. The IC50 in [5] and in test [8] was more than 50 µg/mL throughout.

Regarding 4838_L06 (PGT-121) (antibody), the IC50, pseudovirus neutralization was 0.029 µg/mL in test [13]; 0.011 µg/mL in test [14]; more than 50 µg/mL in test [15]; more than 50 µg/mL in [17]; 0.251 µg/mL in [22]; 0.009 µg/mL in test [23]. Also, the values for the IC50, pseudovirus neutralization in test [24] and in [25] were 0.018 µg/mL and 0.031 µg/mL, respectively.

With 2F5 (antibody), the IC50 (µg/ml), pseudovirus neutralization in test [1] is 2.24 µg/mL; in test [2], 0.14 µg/mL; in test [7], 39.1 µg/mL; in test [9], more than 50 µg/mL; in test [10], 2.02 µg/mL; in test [11], 1.25 µg/mL. For the same substance, in test [12], the IC50 (µg/ml), pseudovirus neutralization was found to be 7.61 µg/mL. The same substance came in with an IC90 (neutralization of pseudovirus) in [3] of more than 50 µg/mL. Besides, the IC50, pseudovirus neutralization in [4] is 13 µg/mL; in test [6] it was 4.05 µg/mL. Also, the IC50 in [5] stood at 4.31 µg/mL; in [8], 3.91 µg/mL.

The record behind these values is US20240132578A1.
